Laboratory results: the RNAGym collection of RNA variant scans (doi:10.1073/pnas.2313332121)
Variants at the floor of the assay were thinned out.

B1: TPR 5TU (parent)
chain: GGAUCUUCUCGAUCUAACAAAAAAGACAAAUCUGCCACAAAGCUUGAGAGCAUCUUCGGAUGCAGAGGCGGCAGCCUUCGGUGGCGCGAUAGCGCCAACGUUCUCAACUAUGACACGCAAAACGCGUGCUCCGUUGAAUGGAGUUUAUCAUG

Variants of: B1
Assay: polymerase ribozyme fitness, log enrichment relative to wild type (log ratio); higher = more active; in vitro selection for triplet polymerase activity
In short: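 Input and output libraries were sequenced on Illumina after a single in vitro selection round, run in triplicate on PCR-built, transcribed mutant libraries of each subunit of a heterodimeric triplet polymerase ribozyme. Selection annealed libraries to a biotinylated primer, the partner subunit and triplets, incubated them frozen at −7 °C, then gel-excised extended constructs for streptavidin-bead capture and RT-PCR. Genotypes with ≥10 input reads and ≥1 read per output were kept. Fitness is the logarithm, taken in base 2, of genotype enrichment divided by wild-type enrichment, using inverse-variance-weighted replicate averages.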

| Variant | polymerase ribozyme fitness (log ratio) |
| --- | --- |
| GGAUCUUCUCGAUCUAACAAAAAAGACAAAUCUGCCACAAAGCUUGAGAGCAUCUUCGGAUGCAGAGGCGGCAGCCUUCGGUGGCGCGAUAGCGCCAACAUUCUCAUCUAUGACACGCAAAACGCGUGCUCCGUUGAAUGGAGUUUAUCAUG [G100A A107U] | ≤ -4.2 |
| GGAUCGUCUCGAUCUAACAAAAAAGACAAAUCUGCCACAAAGCUUGAGAGCAUUUUCGGAUGCAGAGGCGGCAGCCUUCGAUGGCGCGAUAGCGCCAACGUUCUCAACUAUGACACGCAAAACGCGUGCUCCGUGGAAUGGAGUUUAUCAUG [U6G C54U G81A U135G] | -3.31 |
| GGAUCUUCUCGAUCUAACAAAAAAGACAAAUCUGCCACAAAGCUUGAGAGCAUCUUCGGAUGCAGAGGCGGCAGCCUUCGGUGGCGCGAUAGCGCCAACAUUCUCAACUAUGACACGCAAAACACGUGCUCCGUUGAAUGGAGUUUAUCAUG [G100A G124A] | ≤ -4.2 |
| GGAUCUUCUCGAUCUAACAAAAAAGACAAAGCUGCCACAAAGCUUGAGAAUAUCUUCGGAUCCAGAGUCGGCAGCCUUCGGUGGCGCGAUAGCGUCAACGGUCUCCACUAUGACACGCAAAACGCGUGCUCCGUUGAAUGGAGUUUAUCAUG [U31G G50A C51U G62C G68U C95U U101G A106C] | ≤ -4.2 |
| GGAUCUUCUCGAUCGAACAACAAAGACAAAUCUGCCACAAAGCUUGAGAGCAUCUUCGGAUGCAGAGGCGGCAGCCUUCGGUUGCGCGGUAGCGCGAACGUUCUCAACUAUGACACGCAAAACGCGAGCUCCGUUGAAUGGAGUUUAUCAUG [U15G A21C G83U A89G C96G U127A] | -4.13 |
| GGAUCUUCUCGAUCUAACAAAAAAGACAAAUCUGCCUCAAAGCUUGAGAGCUUCUUUGGAUGCAGAGGCGGCAACUUUCGGUGGCGCGAUAGUGUCAACGUUCUCAACGAUGACACGCAAAACGCGUGCUCCGUUGAAUGGAGUUUAUCAUG [A37U A52U C57U G74A C76U C93U C95U U109G] | ≤ -4.2 |
| GGAUCUUCUCGAUCUAUCAAAAAAGCCAAAUCUGCCAUAAAGCUUGAGAGCAUCUUCGGAUGCAGAGGCGGCAGCCUUCGGUAGCGCGAUAGCGCCAACGUUCUCAACUAUGACACGCAAAACUCGUGCUCCGUUGAAUGGAGUUUAUCAUG [A17U A26C C38U G83A G124U] | -3.97 |
| GGAUCUUCUCGAUCUAACAAAAAAGACAAAUCUGCCACAAAGCUUGAGAGCAUCUUCGGAUGCAGAGGCGGCAGCCUUUGGUGGCGCGAUAGCGCCAACGUUCUCAACUAUGACACGCAAAACGCGUGCUCCGUUGAAUUGAGUUUAUCAUG [C79U G140U] | -3.68 |
| GGAUCUUCUCGAUCUAACAAAAAAGACAAAUCUGCCACAAAGCUUGAGAGCAUCUUUGGAUGCAGAGGCGGCAGCCUUCGGUGGCGCGAUAGCGCCAACGAUCUCAACUAUGACACGCAAAACGCGUGCUCCGUUGAAUGGAGUUUAUCAUG [C57U U101A] | 0.41 |
| GGAUCUUCUCGAUCUAACAAAAAAGACAAAUCUGCCACAAAGCUUGAGUGCAUCUUCGGAUGCAGAGGCGGCUGCCUUCGGUGGCGCAAUAGCGCCAACGUUCUAAACUAUGACACGCAAAACGCGUGCUCCGUUGAAUGGAGAUUAUCAUG [A49U A73U G88A C105A U144A] | ≤ -4.2 |
| GGAUCUUCUCGAUCUAACAAUAAAGACAAAUCUGCCACAAAGCUUGAGAGCGUCUUCGGAUGCAGCGGCGGCAGCCUUCGGUGGCGCGAUAGCGCCAACGUUCUCAACUAUGACACGCAAAACGCGUACUCCGUUGAAUGGAGUUUAUCAUG [A21U A52G A66C G128A] | ≤ -4.2 |
| GGAUCUUCUCGAUCAAACAAAAAAGACAAAUCUGCCACAAAGCUUGAGAGCAUCUUCGGAUGCAGAGGCGGCAGGCUUCGGUGGCGCGAUAGCGCCAACGUUCUCAAUUAUGACACGCAAAACGCGUGCUCCGUUGAAUGGAGUUUAUCAUG [U15A C75G C108U] | -4.16 |
| GGAUCUUCUCGAUCUAACAAAAAUGACAAAUCUGCCACAAAGCUUGAGAGCAUCUUAGGAUGCAGAGGCGGCAGCCUUCGGUGGCGCGUUAGCGUCAACGUUCUCAACUAUGACACGUAAAACGCGUGCUCCGUUGAAUGGAUUUUAUCAUG [A24U C57A A89U C95U C118U G143U] | ≤ -4.2 |
| GGAUCUUCUCGAUCUAACAAACAAGACAAAUCUGCUACAAAGCUUGAGAGAAUCUUCGGAUGCAGAGGCGGCAGGCUUCGGUGGCGUGAUAGCGCCAACGUUCUCAACUAUGACACGCAAAACGCGUGCUCCGUUGAAUGGAGUUUAUCAUG [A22C C36U C51A C75G C87U] | ≤ -4.2 |
| GGAUCUUCUCGAUCUAACUAAAAAGACAAAUCUGCCACAAAGCUUGAGAGCAUCUUCGGAUGCAGAGGCGGCAGCCUUCGGUGGCGCGAUAGCCCCAACGUUCUCAACUAUGACACGCAAAACGCGUGCUCCGUUGAAUGGAGUUUAUCAUG [A19U G94C] | -0.449 |
| GGAUCUUCUCGAUCUAACGAAAAAGACAAAUCUGCCACAAAGCUUGAGAGCAUCUUCGGAUGCAGAGGCGGCAGCCUUCGGUGGCGCGAUCGCGCCAACGUUCUCAACUAUGACAAGCAAAACGCGUGCUCCGUUGAAUGAAGUGUAUCAUG [A19G A91C C116A G141A U145G] | ≤ -4.2 |
| GGAUCUUCUCGAUCUAACAAAAAAGACAAAUCUGCCACAAAGCUUGAGAGCAUCUUCGGAUGCAGAGGCGGCAGCCUUCGGUGGCGCGAUAGCGCCAACGUACUCAACUAUGAUGCGCAUAACGCGUGCUCCGUUGAAUGGAGUUUAUCAUG [U102A C114U A115G A120U] | -3.62 |
| GGAUCUUCUCGAUCUAAUAAAAAAGACUAAUCUGCCAAAAAGCUUGCGAGCAUCUUCGGAUGCAGAGGCGGCAGCCUUCGGUGGAGCGAUAGCGCCAACGUUCUCAACUAUGACACGCAAAACGCGUGCUCCGUUGAAUGGAGUCUAUCAUG [C18U A28U C38A A47C C85A U145C] | ≤ -4.2 |
| GGAUCUUCUCGAUCUAACAAAAAAGACAAAUCUGCCACAAAGCUUGAGAGCAUCUUCGGAUGCAGAGGCGGCAGCCUUCGGUGGCGCGAUAGCGUCAACGUUCUCAACUAUGACACGCAAAACGCGUGCUCCGUUGAAGGGAGUUUAACAUG [C95U U139G U148A] | -3.14 |
